Test [1] concerns the target Rpb2, second largest subunit of RNA polymerase II (S. cerevisiae, UniProt P08518 1-1224). Put plainly: cross-linking.
Test [2] has as its target Rpb1, subunit of RNA polymerase II (S. cerevisiae, UniProt P04050 1-1733). Put plainly: cross-linking.

Chain of Rpb2, second largest subunit of RNA polymerase II (P08518 whole entry): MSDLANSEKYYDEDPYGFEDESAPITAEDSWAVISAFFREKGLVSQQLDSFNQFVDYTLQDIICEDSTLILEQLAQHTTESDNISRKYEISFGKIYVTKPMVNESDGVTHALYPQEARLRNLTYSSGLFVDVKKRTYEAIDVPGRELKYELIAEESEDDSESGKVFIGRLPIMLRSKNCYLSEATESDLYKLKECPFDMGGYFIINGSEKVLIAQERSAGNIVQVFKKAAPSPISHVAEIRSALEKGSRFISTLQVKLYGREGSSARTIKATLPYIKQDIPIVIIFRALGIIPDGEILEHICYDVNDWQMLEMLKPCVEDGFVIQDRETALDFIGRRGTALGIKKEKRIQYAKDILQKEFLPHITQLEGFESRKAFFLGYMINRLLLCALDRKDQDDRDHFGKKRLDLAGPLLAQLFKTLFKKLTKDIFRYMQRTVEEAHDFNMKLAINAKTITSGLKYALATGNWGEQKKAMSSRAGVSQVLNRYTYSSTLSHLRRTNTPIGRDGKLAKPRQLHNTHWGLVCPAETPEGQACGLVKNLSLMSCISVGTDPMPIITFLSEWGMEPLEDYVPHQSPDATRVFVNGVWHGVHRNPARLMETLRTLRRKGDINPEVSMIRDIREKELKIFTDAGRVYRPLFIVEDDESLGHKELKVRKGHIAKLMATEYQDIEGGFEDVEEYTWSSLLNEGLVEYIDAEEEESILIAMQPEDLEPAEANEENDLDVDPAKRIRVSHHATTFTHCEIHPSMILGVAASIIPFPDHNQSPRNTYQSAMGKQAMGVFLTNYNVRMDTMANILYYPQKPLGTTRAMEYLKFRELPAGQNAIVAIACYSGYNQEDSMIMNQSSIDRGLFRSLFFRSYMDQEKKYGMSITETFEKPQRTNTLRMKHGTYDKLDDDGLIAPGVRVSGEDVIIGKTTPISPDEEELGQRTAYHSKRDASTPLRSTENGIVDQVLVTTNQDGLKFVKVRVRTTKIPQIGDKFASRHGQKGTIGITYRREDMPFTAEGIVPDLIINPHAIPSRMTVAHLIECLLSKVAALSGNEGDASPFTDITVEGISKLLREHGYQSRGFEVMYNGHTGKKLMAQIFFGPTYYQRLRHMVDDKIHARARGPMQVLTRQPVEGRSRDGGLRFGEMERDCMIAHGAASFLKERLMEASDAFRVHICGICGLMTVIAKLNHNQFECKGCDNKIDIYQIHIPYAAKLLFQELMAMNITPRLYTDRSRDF
Chain of Rpb1, subunit of RNA polymerase II (P04050 whole entry): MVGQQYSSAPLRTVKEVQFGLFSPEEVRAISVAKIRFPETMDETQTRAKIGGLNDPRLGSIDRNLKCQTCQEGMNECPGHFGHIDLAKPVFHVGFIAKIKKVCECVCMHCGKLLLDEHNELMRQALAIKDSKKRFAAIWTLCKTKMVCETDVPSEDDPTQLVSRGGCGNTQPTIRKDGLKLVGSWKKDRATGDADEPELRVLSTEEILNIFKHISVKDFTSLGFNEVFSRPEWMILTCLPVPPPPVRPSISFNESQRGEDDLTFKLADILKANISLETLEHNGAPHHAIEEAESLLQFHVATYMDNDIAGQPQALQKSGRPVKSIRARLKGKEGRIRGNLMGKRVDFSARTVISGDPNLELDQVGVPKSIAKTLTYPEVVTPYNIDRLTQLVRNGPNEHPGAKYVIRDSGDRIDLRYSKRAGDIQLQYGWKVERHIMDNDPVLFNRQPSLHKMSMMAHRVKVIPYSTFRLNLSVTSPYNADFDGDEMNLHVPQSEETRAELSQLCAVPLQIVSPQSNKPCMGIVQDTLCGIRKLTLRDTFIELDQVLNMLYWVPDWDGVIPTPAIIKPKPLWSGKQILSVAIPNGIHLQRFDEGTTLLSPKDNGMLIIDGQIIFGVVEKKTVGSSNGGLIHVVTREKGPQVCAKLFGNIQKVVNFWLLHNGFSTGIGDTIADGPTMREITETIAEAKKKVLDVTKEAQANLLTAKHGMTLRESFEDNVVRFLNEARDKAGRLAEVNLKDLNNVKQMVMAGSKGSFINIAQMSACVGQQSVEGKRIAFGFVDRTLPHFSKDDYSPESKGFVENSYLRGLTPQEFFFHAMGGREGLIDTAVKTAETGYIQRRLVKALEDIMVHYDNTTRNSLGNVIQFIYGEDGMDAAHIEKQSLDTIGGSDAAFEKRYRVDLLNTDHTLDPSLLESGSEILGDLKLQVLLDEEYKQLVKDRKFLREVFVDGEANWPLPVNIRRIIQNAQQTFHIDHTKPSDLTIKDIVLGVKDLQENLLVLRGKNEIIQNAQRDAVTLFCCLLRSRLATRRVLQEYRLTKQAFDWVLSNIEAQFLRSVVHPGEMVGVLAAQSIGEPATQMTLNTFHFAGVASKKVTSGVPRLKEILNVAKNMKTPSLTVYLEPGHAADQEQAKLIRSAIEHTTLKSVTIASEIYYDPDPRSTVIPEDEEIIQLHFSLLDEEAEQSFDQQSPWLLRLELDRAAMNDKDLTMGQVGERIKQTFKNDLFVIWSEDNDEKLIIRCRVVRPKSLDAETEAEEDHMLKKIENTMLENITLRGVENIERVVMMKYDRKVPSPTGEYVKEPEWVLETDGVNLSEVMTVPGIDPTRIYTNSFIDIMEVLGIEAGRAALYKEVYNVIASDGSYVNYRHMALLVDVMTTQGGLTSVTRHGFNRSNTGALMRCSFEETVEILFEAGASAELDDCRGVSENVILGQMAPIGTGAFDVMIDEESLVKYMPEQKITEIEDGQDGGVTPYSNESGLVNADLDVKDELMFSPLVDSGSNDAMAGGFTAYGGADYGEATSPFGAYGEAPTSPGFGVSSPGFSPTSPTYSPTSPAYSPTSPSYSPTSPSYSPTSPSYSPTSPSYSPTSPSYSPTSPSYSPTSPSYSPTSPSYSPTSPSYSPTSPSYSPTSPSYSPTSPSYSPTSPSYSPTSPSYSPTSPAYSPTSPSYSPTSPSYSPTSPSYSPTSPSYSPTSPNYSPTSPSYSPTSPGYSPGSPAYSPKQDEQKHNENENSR

B1: Tfg2, subunit of yeast TFIIF, with a C-terminal TAP tag (natural protein, S. cerevisiae, UniProt P41896 1-400, looked up)
chain: MSSGSAGAPALSNNSTNSVAKEKSGNISGDEYLSQEEEVFDGNDIENNETKVYEESLDLDLERSNRQVWLVRLPMFLAEKWRDRNNLHGQELGKIRINKDGSKITLLLNENDNDSIPHEYDLELTKKVVENEYVFTEQNLKKYQQRKKELEADPEKQRQAYLKKQEREEELKKKQQQQKRRNNRKKFNHRVMTDRDGRDRYIPYVKTIPKKTAIVGTVCHECQVMPSMNDPNYHKIVEQRRNIVKLNNKERITTLDETVGVTMSHTGMSMRSDNSNFLKVGREKAKSNIKSIRMPKKEILDYLFKLFDEYDYWSLKGLKERTRQPEAHLKECLDKVATLVKKGPYAFKYTLRPEYKKLKEEERKATLGELADEQTGSAGDNAQGDAEADLEDEIEMEDVV
Take B1: in test [1], the binding result is given as “binds”.

B2: Tfg1, subunit of yeast TFIIF (natural protein, S. cerevisiae, UniProt P41895 1-735, looked up)
chain: MSRRNPPGSRNGGGPTNASPFIKRDRMRRNFLRMRMGQNGSNSSSPGVPNGDNSRGSLVKKDDPEYAEEREKMLLQIGVEADAGRSNVKVKDEDPNEYNEFPLRAIPKEDLENMRTHLLKFQSKKKINPVTDFHLPVRLHRKDTRNLQFQLTRAEIVQRQKEISEYKKKAEQERSTPNSGGMNKSGTVSLNNTVKDGSQTPTVDSVTKDNTANGVNSSIPTVTGSSVPPASPTTVSAVESNGLSNGSTSAANGLDGNASTANLANGRPLVTKLEDAGPAEDPTKVGMVKYDGKEVTNEPEFEEGTMDPLADVAPDGGGRAKRGNLRRKTRQLKVLDENAKKLRFEEFYPWVMEDFDGYNTWVGSYEAGNSDSYVLLSVEDDGSFTMIPADKVYKFTARNKYATLTIDEAEKRMDKKSGEVPRWLMKHLDNIGTTTTRYDRTRRKLKAVADQQAMDEDDRDDNSEVELDYDEEFADDEEAPIIDGNEQENKESEQRIKKEMLQANAMGLRDEEAPSENEEDELFGEKKIDEDGERIKKALQKTELAALYSSDENEINPYLSESDIENKENESPVKKEEDSDTLSKSKRSSPKKQQKKATNAHVHKEPTLRVKSIKNCVIILKGDKKILKSFPEGEWNPQTTKAVDSSNNASNTVPSPIKQEEGLNSTVAEREETPAPTITEKDIIEAIGDGKVNIKEFGKFIRRKYPGAENKKLMFAIVKKLCRKVGNDHMELKKE
With B2, the binding result in test [1] and in test [2] was “binds” in each case.
